This is an account of results in patent US8247168B2, “Regulation of gene expression by protein methylation” (University of Southern California, priority 1998, dated 2012).

In data set [1] the test system is androgen receptor, estrogen receptor, and thyroid hormone receptor. In words: Reporter gene activation by hormone-activated nuclear receptors in transiently transfected CV-1 cells. It counts as cell-based. The settings on record: co-expression of GRIP1 with NR, CV-1 cells, hormone present (lane d). As for the experimental part: (A) Transient transfection assays with CV-1 cells were performed as in FIG. 5 with 0.5 μg of GK1 reporter gene and 0.5 μg of each of the indicated vectors. (B) CV-1 cells were transiently transfected as in FIG. 5 with the following vectors, as indicated: 0.5 μg of nuclear receptor expression vector pSVAR0 (Brinkmann, A. O. et al. (1989) J. Steroid Biochem. Molec. Biol. 34:307) expressing AR, pHE0 (Green, S. et al. (1988) Nucleic Acids Res. 16:369) expressing ER, or pCMX.hTRβ1 (Feng, W. et al. (1998) Science 280:1747) expressing TR; 0.5 μg of a luciferase reporter gene with an appropriate promoter, MMTV promoter for AR, or MMTV promoter with the native glucocorticoid response elements replaced by a single estrogen response element for ER or palindromic thyroid hormone response element for TR (Umesono, K. and R. M. Evans (1989) Cell 57:1139); 0.5 μg of pSG5.HA-GRIP1; and 0.5 μg of pSG5.HA-CARM1 or pSG5.HA-CARM1 (VLD mutant). Transfection efficiency was monitored by using βgalactosidase activity expressed from 0.1 μg of co-transfected pCMV-βgal vector (Hong, H. et al. (1996) Proc. Natl. Acad. Sci. USA 93:4948-4952) as an internal control. After transfection, cells were grown in charcoal-treated serum; where indicated 20 nM hormone (H), i.e. dihydrotestosterone for AR, estradiol for ER, or triiodothyronine for TR, was included during the last 40 h of culture. […]
On the technique in general: In a reporter assay the amount or activity of a reporter protein is the signal.

The subject of data set [2] is hnRNPA1. In words: Methylation of hnRNP A1, SDS-PAGE and fluorography (FIG. 8C). It counts as biochemical, human. The settings on record: 0.083 mg/ml hnRNP-A1. The method, then: CARM1 and PRMT1 have different protein methyltransferase substrate specificities. CARM1 methylates histone H3, whereas PRMT1 methylates histone H4. […] (A,B) Calf thymus histones (Boehringer Mannheim) were incubated for 30 min at 30° C. in 32.5 μl reactions containing 20 mM Tris-Cl, 0.2 M NaCl, 4 mM EDTA, pH 8.0, 0.32 mg/ml individual histone (2a, 2b, 3, or 4) or 1.3 mg/ml mixed histone (M), 0.037 mg/ml GST-CARM1 or GST-PRMT1, and 7 μM S-adenosyl-L-[methyl-^3H]methionine (specific activity of 14.7 Ci/mmol). Reactions were stopped by addition of SDS-NuPAGE sample buffer (Novex), and 40% of each stopped reaction was then subjected to SDS-PAGE in 4-12% NuPAGE Bis-Tris gradient gels (Novex) using the Na-MES running buffer. Gels were stained with Coomassie Blue R-250 (A), and then subjected to fluorography (Chamberlin, M. (1978) Anal. Biochem. 98:132) for 12 h at −70° C. on sensitized Kodak XAR-5 film (B). Molecular weight markers (MW) are shown at left. Concentrations of GST fusion proteins were determined in comparison with bovine serum albumin standards (Sigma) by SDS polyacrylamide gel electrophoresis and Coomassie Blue staining; it was assumed that bovine serum albumin stained twice as intensely as most other proteins. Concentrations of histones and hnRNP A1 were determined by the method of Lowry (Lowry, O. H. et al. (1951) J. Biol. Chem. 193:265). […]

In data set [3] the test system is R1 peptide SEQ ID NO: 4 […]-NH2. As to the kind of experiment: Methyltransferase reaction with R1 peptide substrate, reversed-phase HPLC separation. It counts as biochemical. The settings on record: substrate R1 peptide (120 μM); enzyme 0.03-0.05 mg/ml.
In data set [4] the target is T1, K1 peptide SEQ ID NO: 5 […]-NH2 (Mus musculus, UniProt Q9WVG6, W314R).
T1 construct: A 3.2-kb partial CARM1 cDNA clone with an open reading frame of 606 amino acids (CARM1(3-608)); made in house; host or cells: E. coli strain BL21
T1 sequence (Q9WVG6 3-608 W314R): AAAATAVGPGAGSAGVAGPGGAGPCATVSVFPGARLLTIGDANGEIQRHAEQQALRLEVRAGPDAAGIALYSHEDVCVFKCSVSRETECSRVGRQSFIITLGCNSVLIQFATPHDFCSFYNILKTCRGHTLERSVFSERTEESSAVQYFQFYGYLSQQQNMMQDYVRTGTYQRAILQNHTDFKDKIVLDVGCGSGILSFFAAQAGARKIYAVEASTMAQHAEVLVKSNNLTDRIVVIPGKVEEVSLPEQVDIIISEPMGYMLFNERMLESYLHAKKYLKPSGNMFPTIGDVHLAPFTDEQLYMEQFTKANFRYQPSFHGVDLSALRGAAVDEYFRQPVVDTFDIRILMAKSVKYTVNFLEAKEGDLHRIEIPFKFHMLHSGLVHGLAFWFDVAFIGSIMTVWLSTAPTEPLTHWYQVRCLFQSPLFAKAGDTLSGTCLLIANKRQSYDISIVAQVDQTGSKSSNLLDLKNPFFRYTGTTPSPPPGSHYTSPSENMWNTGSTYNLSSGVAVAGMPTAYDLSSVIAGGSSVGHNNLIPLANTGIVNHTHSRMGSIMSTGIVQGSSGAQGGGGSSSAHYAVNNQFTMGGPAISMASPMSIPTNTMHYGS
In words: Methyltransferase reaction with K1 peptide substrate, reversed-phase HPLC separation. It counts as biochemical. To be noted: substrate K1 peptide (120 μM); enzyme 0.03-0.05 mg/ml.

Data set [5] has as its system mixed histones (calf thymus). As to the kind of experiment: Methyltransferase reaction with mixed histones, reversed-phase HPLC separation. In kind it is biochemical. To be noted: substrate mixed histones (2.7 mg/ml), enzyme 0.03-0.05 mg/ml.

Marks after values point to notes of the source that are not given here.

With “GRIP1: p160 nuclear receptor coactivator”, the “enhancement of reporter gene expression by the hormone-activated NR” value in data set [1] was in the range of 2 to 27 fold. On to “PRMT1: related mammalian protein arginine methyltransferase [reference compound]”, for which, in data set [2], the “methylation of hnRNPA1” value is “good substrate”.

B1: GST-CARM1: glutathione S-transferase fusion protein of CARM1 produced in E. coli (protein)
chain: AAAATAVGPGAGSAGVAGPGGAGPCATVSVFPGARLLTIGDANGEIQRHAEQQALRLEVRAGPDAAGIALYSHEDVCVFKCSVSRETECSRVGRQSFIITLGCNSVLIQFATPHDFCSFYNILKTCRGHTLERSVFSERTEESSAVQYFQFYGYLSQQQNMMQDYVRTGTYQRAILQNHTDFKDKIVLDVGCGSGILSFFAAQAGARKIYAVEASTMAQHAEVLVKSNNLTDRIVVIPGKVEEVSLPEQVDIIISEPMGYMLFNERMLESYLHAKKYLKPSGNMFPTIGDVHLAPFTDEQLYMEQFTKANFRYQPSFHGVDLSALRGAAVDEYFRQPVVDTFDIRILMAKSVKYTVNFLEAKEGDLHRIEIPFKFHMLHSGLVHGLAFWFDVAFIGSIMTVWLSTAPTEPLTHWYQVRCLFQSPLFAKAGDTLSGTCLLIANKRQSYDISIVAQVDQTGSKSSNLLDLKNPFFRYTGTTPSPPPGSHYTSPSENMWNTGSTYNLSSGVAVAGMPTAYDLSSVIAGGSSVGHNNLIPLANTGIVNHTHSRMGSIMSTGIVQGSSGAQGGGGSSSAHYAVNNQFTMGGPAISMASPMSIPTNTMHYGS
modifications: left off: a dimerising Fc or GST
notes: glutathione S-transferase fusion protein of CARM1 produced in E. coli
For B1, the Methyltransferase specific activity is 21.6-54.5^a pmol/min/mg in data set [3], 0.7 pmol/min/mg in data set [4] and 971 pmol/min/mg in data set [5].
